Experimental data as given in publication PMC11551957 (ACS Applied Materials & Interfaces, 2024).

B1: 10E8 Fab-mVenus S65C conjugated with Fus4 (Fab, V domains shown)
VH: EVQLVESGGGLVKPGGSLRLSCSASGFDFDNAWMTWVRQPPGKGLEWVGRITGPGEGWSVDYAAPVEGRFTISRLNSINFLYLEMNNLRMEDSGLYFCARTGKYYDFWSGYPPGEEYFQDWGRGTLVTVSS
VL: SYELTQETGVSVALGRTVTITCRGDSLRSHYASWYQKKPGQAPILLFYGKNNRPSGVPDRFSGCASGNRASLTISGAQAEDDAEYYCSSRDKSGSRLSVFGGGTKLTVL
B2: 10E8 Fab-mVenus S65C conjugated with Lin3 (Fab, V domains shown)
VH: B1 VH
VL: B1 VL

Biological target: T1, MPER-TM(654-709) polypeptide (HIV-1, UniProt P04578)
T1 construct: also called MPER-TMD polypeptide; MPER-TMD construct
Assay: flow cytometry on cells; stable HEK293T cells expressing the antigen; 10^6 cells; Fab-mVenus variants at 2 μg/mL, 30 min, RT, FACS buffer (PBS, 0.1% FBS); mVenus fluorescence read; Env cells with or without preincubation with Ig-mD1.22 (20 μg/mL, 30 min)
Conditions: one partner purified

Row | Binder | binding result
1 | B1 | binds
2 | B2 | binds
